Results published in patent US20220306758A1.

Target: cynomolgus CD3 on mfCD3 engineered Jurkat cells (cynomolgus CD3ε and CD3δ in place of the human versions) (cynomolgus) (UniProt Q95LI5)
Assay: flow cytometry on mfCD3 engineered Jurkat cells, median EC50, n=2

Chain of cynomolgus CD3 on mfCD3 engineered Jurkat cells (cynomolgus CD3ε and CD3δ in place of the human versions) (cynomolgus) (Q95LI5 22-198, stated change not applied, chain 1 of 2): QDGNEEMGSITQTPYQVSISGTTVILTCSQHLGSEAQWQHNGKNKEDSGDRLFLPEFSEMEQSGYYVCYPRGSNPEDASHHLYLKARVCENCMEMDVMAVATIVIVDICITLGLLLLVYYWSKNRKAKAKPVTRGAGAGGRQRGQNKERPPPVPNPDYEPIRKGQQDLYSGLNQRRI
Chain of cynomolgus CD3 on mfCD3 engineered Jurkat cells (cynomolgus CD3ε and CD3δ in place of the human versions) (cynomolgus) (Q95LI8 22-171, stated change not applied, chain 2 of 2, further chain): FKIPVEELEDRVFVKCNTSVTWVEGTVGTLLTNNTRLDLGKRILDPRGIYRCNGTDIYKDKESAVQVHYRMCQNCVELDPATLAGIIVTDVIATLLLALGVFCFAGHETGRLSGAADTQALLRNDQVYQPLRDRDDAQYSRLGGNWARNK
Chain of REGN5458 (bsAb25441D), anti-BCMA x anti-CD3 bispecific antibody (VH): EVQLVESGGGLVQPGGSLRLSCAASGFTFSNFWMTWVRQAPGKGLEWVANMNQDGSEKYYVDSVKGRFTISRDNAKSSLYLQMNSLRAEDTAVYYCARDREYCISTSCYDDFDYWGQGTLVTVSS
Chain of REGN5458 (bsAb25441D), anti-BCMA x anti-CD3 bispecific antibody (VH): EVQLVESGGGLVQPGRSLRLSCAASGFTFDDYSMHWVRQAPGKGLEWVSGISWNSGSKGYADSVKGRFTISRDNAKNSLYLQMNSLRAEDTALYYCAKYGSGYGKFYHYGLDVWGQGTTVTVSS
Chain of REGN5458 (bsAb25441D), anti-BCMA x anti-CD3 bispecific antibody (VL): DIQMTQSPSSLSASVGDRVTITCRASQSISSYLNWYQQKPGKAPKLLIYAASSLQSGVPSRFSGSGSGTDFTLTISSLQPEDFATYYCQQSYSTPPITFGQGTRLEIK

REGN5458 (bsAb25441D), anti-BCMA x anti-CD3 bispecific antibody
EC50: 0.0151 µM
